Results taken from the DeepSol protein solubility set.

Test: soluble on expression in E. coli; label from the status in PepcDB or PDB records

| Sequence | soluble on expression in E. coli |
| --- | --- |
| DVTDIKVKEAEIVSKSVAIREIHHRVKNNLQSVVSLLRIQGRRSTSVEAQKVLNESVSRILAIAATHELLSKQMEDGINLYMVIEAVAYNIERCCNDCPQVAVRMDI | not soluble |
| MSGCDAWEGDCCSRRCGAQDKEHPRYLIPELCKQFYHLGWVTGTGGGISLKHGDEIYIAPSGVQKERIQPEDMFVYDINEKDISGPSPSKKLKKSQCTPLFMNAYTMRGAGAVIHTHSKAAVMATLLFPGREFKITHQEMIKGIKKCTSGGYYRYDDMLVVPIIENTPEEKDLKDRMAHAMNEYPDSCAVLVRRHGVYVWGETWEKAKTMCECYDYLFDIAVSMKKVGLDPSQLPVGENGIV | soluble |
| MGIIISLVAPTVSSTISSRLMIGPENNEKDAKNSDRTKYDNLAMLGRSPEQKEHVNPFEKAPVARPTRNTVDSQMMLGPPKKANDQSASDCSIYDNLVVPMSELGPTPGNKPSPNPIEGAPMIRPPQDTVSRAPDNSIYDTLQMTPEVDWSKKMTMKSMKKTGK | not soluble |
| MGSDKIHHHHHHMAKAPKMAFVCDDCGLDYPRWQGQCRCGAWNSLVEMKLSASKSSTSRSSVLGYAGAVGGGSKKLSEVESEDAEKRLTEIGELDRVLSGGLTTGSVNIISGDPGAGKTTLLSDLVARMSQSMASLYCTAEESLSQFKNRVNRLKLNYNEDNLFLLSETSVEAIIEELEAKQIKFAVIDSIQAVVTDAANGSPGSPSQVKTAAQAFTQYCKKNNVTMFIIAHVNKNNEIAGPQTLVHIVDSLLHIDTNDGQIRTLRANKNRFGDVDTVGIFRMSERGMISVDNPSEIFLSGSTTESPGSTITCIRKGNRNLLLEIQCLTTETESEFPQRVCVGLNMNRIKMLTGILRKHTKTKIFHDTFFNIVGGLKIDESETCIDLALVTALLSSLNDFVVPRTTCIMGELSLNGDVRPIDSGVPRVKEAAQHGFTEIFIPFRNYHKTMEGLGAKIIPVKTIHELLELIN | not soluble |
| MKKLMITQEAGVATVLIKNPPVNILTIDLINELNAFILSLKDDRETKVVVFKSFHEAFFIAHLDLNVINGTSGGQAASIEFNHMIANIKAMKQLSIAVVDGVARGGGNEFVMACDLAYGTENSAFAQPELYINIPTGGQGAVQFARRLGKGKALQALLTGADFTAQQAETLNIITQFVLKAELDVFLAQLLSVIVGWEIRDIVMYKEIIAASIKDEAVGTELELRYFLERAREEKTQTIIAAFLKHGGQTEREAKDMQGIFVDTAAELSK | not soluble |
| MGSDKIHHHHHHMSEILVLGGGMVGISTALELQARGHAVTVVDRKAPGQETSYGNAGLIQAEAAEPYAMPRALPEILGILSGRSNDVIWSLRGVLSQLPALWQYYRYSHPHRHLALSQPNAHLIRTACADHDRWITAAAAQDLIAQDGYLSVFQDAAMFDSLASDLERLRQSYGVEATAMSGPQLCKMEPLYQRPPVGGIHWRDVWSCAAPGELVARYAALFQSRGGEICTGDASTLRPEGSAWALMSEAGRLHGEHAVIALGPWTPPILAQLGYRVRMIMKHGAHRMYPTGPKLRRPVHDAQHGIVLSSMKGGLRMTCGVALEASGRVPDARQLDRGAKGLAAYMDLGTAEGGPIWHGTRPFLPDMLPMVGAAPRHDRLWFHFGHGHQGFTLGPTTARHLGALIDGGDSAGIAALLPQNRPAVLS | not soluble |
| MAESDWDTVTVLRKKGPTAAQAKSKQAILAAQRRGEDVETSKKWAAGQNKQHSITKNTAKLDRETEELHHDRVTLEVGKVIQRGRQSKGLTQKDLATKINEKPQVIADYESGRAIPNNQVLGKIERAIGLKLRGKDIGKPIEKGPKAK | soluble |
| MGSDKIHHHHHHMDAAAAPERIDLAGLVADLNALLRLKTTVIGMKLFRTVAEMEAVPKIRRPNAIHTTDQIVSMASRLGWTVGITAADLVGEQCRAVIGLAPQDAAWLAGRSYVGVWHATPEDASARQQALDVVPFGHHQAMAVSPLASGRLDPPDICLVYATPGQMIILINGLQYAGYKKFEWSVVGETACADSWGRALKTGEPSLSLPCFAERRYGGVPDEEMLMALSPAHLAKAIDGMKQLAKNGLRYPIAPYGIQADVRAGMGVSYGNK | not soluble |
| MNPIHDRTSDYHKYLKVKQGDSDLFKLTVSDKRYIWYNPDPKERDSYECGEIVSETSDSFTFKTVDGQDRQVKKDDANQRNPIKFDGVEDMSELSYLNEPAVFHNLRVRYNQDLIYTYSGLFLVAVNPFKRIPIYTQEMVDIFKGRRRNEVAPHIFAISDVAYRSMLDDRQNQSLLITGESGAGKTENTKKVIQYLASVAGRNQANGSGVLEQQILQANPILEAFGNAKTTRNNNSSRFGKFIEIQFNNAGFISGASIQSYLLEKSRVVFQSETERNYHIFYQLLAGATAEEKKALHLAGPESFNYLNQSGCVDIKGVSDSEEFKITRQAMDIVGFSQEEQMSIFKIIAGILHLGNIKFEKGAGEGAVLKDKTALNAASTVFGVNPSVLEKALMEPRILAGRDLVAQHLNVEKSSSSRDALVKALYGRLFLWLVKKINNVLCQERKAYFIGVLDISGFEIFKVNSFEQLCINYTNEKLQQFFNHHMFKVEQEEYLKEKINWTFIDFGLDSQATIDLIDGRQPPGILALLDEQSVFPNATDNTLITKLHSHFSKKNAKYEEPRFSKTEFGVTHYAGQVMYEIQDWLEKNKDPLQQDLELCFKDSSDNVVTKLFNDPNIASRAKKGANFITVAAQYKEQLASLMATLETTNPHFVRCIIPNNKQLPAKLEDKVVLDQLRCNGVLEGIRITRKGFPNRIIYADFVKRYYLLAPNVPRDAEDSQKATDAVLKHLNIDPEQYRFGITKIFFRAGQLARIEEAREPN | soluble |
| MGSDKIHHHHHHMQNPQQVSASKTLSPILVQGAMDIEVETLIAALGKVTVNTFGSWTFWEGELSGHPVVVSRTEIGLANAAAATTLAIAHYRPKLIINQGTAGGHDPKLYRGDIVIGETSFNMGSYLTKLTPKGQGIHPTQWQNFDMTMYLRENGEVVKHNHFKADPALVEVALSQAHHYTKGNVVKGIIGTGDEWNRELDRINWLHHTFGTAVEEMETSAAALVAEAYKLPFVSIRILSNTDQHDQDCDPQTAVDCQQFVLNIIQQLINTTK | not soluble |
| MAHHHHHHMEQDAASRPVTESEQTTTSYHGHTVSFLLLLYRRLEFESSGSTRPKAMLLRSDDTSPWPSPAPLSPVPSRPSSCRSSFSSLSVTSCISIISLLISSKTAVSRFTSSSWRLRRSSSCCCNSCAVAILLPLRAHGTTQPTGKKKKKKKEREKRKTQDAHHN | not soluble |
| GPGSMELALEAMDAAEPPVSAAEKARRLALLRASSAEEARSLVALHDAAALAELRAAIMDSFPDERHDPEMSVHLDQIIWGRCPIRIDVAGAWTDTPPYAILSGGSVINVAVELNGQPPVQVYVRVREDPIIMMHSIDSGEQLSVSSFDEIRTYATMQNPFSIPKAALALCGFLPEFCATEYATLREQLAARFGGHGLEISLFVAIPTGSGLGTSSIVAGTVLRSLAEFCKLPWDNHDVCRRVLLIEQMLTAGGGWQDQYGGLFEGLKLVQCVPGLPCLPTVRWMPDSVYTDPRFAACHLLYYTGITRMAKGILGEIVRDVLLNNGATLQLLREMGGPTTAAMYDAITTGNYKGYARLVHRTWEQKKRLDDGVCNPTVQSIVDIVEPYVWGLTLPGAGGGGYMYMCAKDEACARRIRELLTANPPNGNARFVEMSVSASGLQISRS | not soluble |
| MAHHHHHHMLRCAPSKLFRATPLLRVWAAEEDDASAPRTTFRNVRPGRLLRLWRQMRHRAWMLYAWDEEWVSPMQEGYLHQQRLEQVCFAPLSAYGVVPGSYCDPLLYNTKSTSPFRWHVANVQGDIVGHWYMDADELFRIEDWQPREPDDPLEMFPRPPPMLLRWDESVDEHGNRAFRYRYHYDMMGPTGKWEAYPRCPFSHLYHGGPDQHGRAEGYGFQQGHLLRCDEAEEEVLRRIMEGEDREWEMVKRTEAVQEPWSYPGKIRPRDFEGAVERAKARFRERVRHGKETDPSEDPEYDLVQASEYVEPRDGRRAEWRHLWASGRKPGESLPFHVAFNDGLCFEGNEGGPPAHPAAHYEAAHYEAPYGRYEDADAAAARAAEAAHNAACEQSLSEAMARHRRLFGDTSGAPSGPKAPLPTGCRPMRCAPGPPLPSGRSRSSGARAVGSGPVCGAGARDGESEGEGRGGEAPLGYGARACSWRRREGWV | not soluble |
| MFIGGAIISFLFLFGYMWKEAHSNRIRHVTLSFPHFPDNGPPLTIFFISDIHRRSVSCRMLETVKGKADLVVIGGDLAEKGVPAARVRENVRRLQTVAPVYFVWGNNDDEVDYDLQSLLEEERVYVLKNKAEVWEHGGVPIALIGVGDVSRKEADIARALEHVPPESFRILACHNPAIIARLEDEQHISLVLSGHTHGGQIRLFSFGLYEKGGLKWHGNTALFTSNGYGTTGVPLRLGAPAETHLIKIVPGKLATEKLEHHHHHH | soluble |
| MSLKYVDEFRNGDYAKTLVRLIQKLTKKKINIMEICGSHTMAIFRYGIKDILPSNIRLISGPGCPVCVTSQGYIDTALELSLSREVIIATFGDMIRVPGTKTSLMKRKAEGADIKIVYSPMDALTLAENNPLKKVVFLSVGFETTTPITAITILEAKKRGVKNIFFLTSNKMVPPVMRTLVEDKELNITGFLLPGNVSAIIGKKPYEFLSSEYNVSGVVTGFEPLDILKGLKVLIDIINNNASVIVNEYKRVVRDEGNVTALRYIKEVFEVTDSTWRGIGNIEKSGYKINTEYEQFDAVKQFNINYKECDSSSECRCGDILKGKITPIECSLFKKACTPDHPVGSCMVSYEGVCAAYYKFLNTEGHHHHHH | not soluble |
| AGDIAIIGLAGRYPKAANIHEFWNNLKEGKDCVSEIPESRWDWQRLEGITSPSGKDISKWGGFIDDPDCFDPQFFRITPREAETMDPQERLFLETCWETIEDAGYTPKTLAKPKGRNKRQHVGVFAGVMHKDYTLVGAEEASAENVFPLSLNYAQIANRVSYFCNFHGPSMAVDTVCSSSLTAVHLALESIRHGECDVALAGGVNLSLHPNKYMTYGVWDMFSTDGHCRTFGKDGDGYVPAEGIGAVLLKPLRQAEEDGDRIYAVIKGSAVNHVGTVSGISVPSPVSQADLIETCLEKTGIDPRTISYVEAHGTGTSLGDPIEIQGLVKAFRQYTQDRQFCSIGSVKSNIGHAESAAGISGLSKVALQLHHQKLVPSLHSEELNPYVDFEKSPFYVQHETETWKQPVIKENGEDVPYPRRAGISSFGATGSNAHIILEEH | soluble |
| MGQIIVSMYLSLDGVMEEPAWTAPYFNEEVAKFQSDLLFESEALLLGRVTYQGFAAAWPSMTDEEGFADKMNSIPKFVASTTLEKTEWNANLIKGNIVEEISKLKEQPGQNLLIYGSGELIQTLMQHDLIDEYHFMVNPVIVGSGKHLFKTGNDTKALKLIETRTTSSGVVILSYQPEKKE | not soluble |
| MGDGISETIDAFHRGRFHIIQPKGRGHRAGMDAMLLASLVADDRACRIADLGAGAGAAGMAVAARLEKAEVTLYERSQEMAEFARRSLELPDNAAFSARIEVLEADVTLRAKARVEAGLPDEHFHHVIMNPPYNDAGDRRTPDALKAEAHAMTEGLFEDWIRTASAIMVSGGQLSLISRPQSVAEIIAACGSRFGGLEITLIHPRPGEDAVRMLVTAIKGSRARLTFRAPLIMHET | soluble |
| MSSISLIQPDRDLFSWPQYWAACFGPAPFLPMSREEMDQLGWDSCDIILVTGDAYVDHPSFGMAICGRMLEAQGFRVGIIAQPDWSSKDDFMRLGKPNLFFGVTAGNMDSMINRYTADRRLRHDDAYTPDNVAGKRPDRATLVYTQRCKEAWKDVPVILGGIEASLRRTAHYDYWSDTVRRSVLVDSKADMLMFGNGERPLVEVAHRLAMGEPISEIRDVRNTAIIVKEALPGWSGVDSTRLDTPGKIDPIPHPYGEDLPCADNKPVAPKKQEAKAVTVQPPRPKPWEKTYVLLPSFEKVKGDKVLYAHASRILHHETNPAVPAH | not soluble |
